The values below come from patent publication US20190241619A1.

One assay has as its target HLA-A2 (human). The experiment in a line: experimental peptide-HLA binding affinity; method not described.
For MLDLQPETT (modifications not checked) [HPV16 E7/12-20 peptide …], the Binding affinity is 3.6 µM. In turn, YMLDLQPE (modifications not checked) [HPV16 E7/11-18 peptide YMLDLQPE] had a Binding affinity of 8.07 µM. Take YMLDLQPETTD (modifications not checked) [HPV16 E7/11-21 peptide …]: the Binding affinity turned out to be 2.37 µM. MLDLQPET (modifications not checked) [HPV16 E7/12-19 peptide MLDLQPET] displayed a Binding affinity of 53.7 µM. With YMLDLQPETT (modifications not checked) [HPV16 E7/11-20 peptide …], the Binding affinity came out at 2.19 µM.

In a further assay the target is HLA-A1 (human). The description is as above.
The molecule ETTDLYCY (modifications not checked) [HPV16 E7/18-25 peptide ETTDLYCY] returned a Binding affinity of 11.5 µM. DLQPETTDLY (modifications not checked) [HPV16 E7/14-23 peptide …]: the Binding affinity is 1.62 µM.
